Results: patent US20130231286A1, “Use of Prolactin Receptor Antagonist and Chemotherapeutic Drug for Treating Ovarian Cancer” (ONCOLIX, INC., priority 2010, published 2013)

Key:
[1] = system: mouse ovarian cancer cells ID8; assay: Mouse ovarian cancer cells ID8 injected intraperitoneally in SCID mice: tumors and secondary nodules; type: in vivo; conditions: 52 days, G129R 100 ug daily, DCT 25 ug weekly
Experimental: SCID mice were injected with one million mouse ovarian cancer cells ID8 intraperitoneally on day 1.
All mice were treated for 52 days and then sacrificed, and tumors from every experimental group were weighted.
The effect of G129R and the G129R+DCT combination on the ability of mouse ovarian cancer cells to metastasize was also studied.

[2] = system: human ovarian cancer cells SKOV3; assay: Human ovarian cancer cells SKOV3 injected intraperitoneally in SCID mice: tumors and secondary nodules; type: in vivo, mouse; conditions: 38 days, G129R 100 ug daily, DCT 25 ug weekly
Experimental: SCID mice (laboratory experimental animals that lack both T and B lymphocytes) were injected with one million human ovarian cancer cells SKOV3 intraperitoneally on day 1.
All mice were treated for 38 days and then sacrificed, and tumors from every experimental group were weighted.
The effect of G129R and the G129R+DCT combination on the ability of human ovarian cancer cells to metastasize was also studied.

[3] = system: Primary mammary tumor cells isolated from MMTV/neu transgenic mouse; assay: ALDH1 activity in cultured primary MMTV/neu mammary tumor cells, time course; type: cell-based; conditions: G129R 10 ug/ml
Experimental: Primary mammary tumor cells were isolated from MMTV/neu transgenic mouse and cultured in the presence of G129R (10 ug/ml) or PRL (100 ng/ml) for 24, 48, 72, or 96 hrs. Specifically, tumor removed from an MMTV-neu mouse was digested to a single cell suspension and plated in 12-well plates at 1×10^5 cells/ml. Cells were allowed to adhere for 24 hours in growth media followed by 2 hours of serum-free media depletion. The cells were then either treated without (control) or with prolactin (100 ng/ml) or G129R (10 ug/ml). Cells were collected following 24, 48, 72, or 96 hours of treatment and the ALDH-1 activity was measured.

[4] = system: Human triple-negative breast cancer cells MDA-MB-231; assay: ALDH1 activity (ALDEFLUOR fluorescent assay) in triple-negative breast cancer cells; type: cell-based; conditions: MDA-MB-231, G129R 10 ug/ml, three days, vs control
Experimental: Human triple-negative breast cancer cells MDA-MB-231 and control breast cancer cells T-47D were plated in 6 well plates at 1×10^5 cells/ml, and allowed to adhere for 24 hours in growth media followed by 2 hours of serum free media depletion. The cells were then cultured either without (control) or with prolactin (100 ng/ml) or G129R (10 ug/ml) for three days. The cells were then collected and the ALDH-1 activity (this enzyme is a marker for cancer stem cells. See Ginestier et al., Cell Stem Cell 2007 1(5): 555-567) was measured by ALDEFLUOR^R fluorescent assay (StemCell Technologies).

[5] = system: mammary HER2+ adenocarcinomas of MMTV/neu transgenic mice; assay: ALDH1 activity in tumor cells isolated from treated MMTV/neu transgenic mice; type: in vivo, mouse
Experimental: MMTV/neu transgenic mice carry an activated c-neu oncogene driven by a mouse mammary tumor virus (MMTV) promoter and develop mammary HER2^+ adenocarcinomas (Muller et al. 1988. Cell. 54(1):105-15). MMTV/neu transgenic mice bearing mammary tumors were treated with PBS (n=4) or G129R for 5 (n=2) or 10 (n=3) days (10 mg/kg, i.p.). The tumors were isolated at the end of treatment, digested to a single cell suspension, and ALDH1 activity levels were compared.

[6] = system: lung metastases of HER2+/neu breast tumors; assay: Lung metastases after removal of primary breast tumors in MMTV/neu mice; type: in vivo, mouse; conditions: 200 ug/day i.p. for more than 40 days, vs untreated control, P<0.05
Experimental: Primary breast tumors were removed from MMTV/neu transgenic mice. The mice were then treated either with PBS or G129R (200 ug/day, i.p.) for more than 40 days. When the secondary tumors (recurrence) grew to a certain size, the mice were sacrificed and the lungs were excised and fixed in Bouin's fixative to observe metastasis.

[7] = system: HER2+/neu tumors implanted into female transgenic mice; assay: Growth of implanted tumors in transgenic mice; type: in vivo, mouse; conditions: 10 mg/kg i.p. daily, 50 days; ±SEM
Experimental: In two separate experiments, tumors were isolated from female transgenic mice, sectioned into equivalent sized pieces and implanted into age-matched recipient female transgenic mice. Ten days after implantation, mice were randomized into either control (n=3-4) or G129R treated groups (n=4, 10 mg/kg, i.p. daily). The mice were then treated on a daily basis for 50 days and tumor volumes for the control and treated groups were monitored.

[8] = system: phosphorylated Neu protein; assay: Phosphorylation of Neu protein in primary and secondary tumors (western blotting); type: in vivo, mouse; conditions: 200 ug per day for 5 days, vs PBS
Experimental: MMTV/neu mice (bearing primary and secondary tumors) were treated either with PBS (control) or with 200 ug of G129R per day for 5 days. Primary and secondary tumors were removed 24 hours following the 5th treatment and processed for western blotting.

[9] = system: phosphorylated HER2/neu protein; assay: Dose-dependent response of phosphorylated HER2/neu in tumors in vivo (western blotting); set-up: species or system mouse; conditions: i.p. for ten days; 2.5, 5, 10, 20 mg/kg/day tested
Experimental: To determine a minimal dosage of G129R required for decreasing phosphorylation of HER^+/neu in vivo, a biopsy was removed from tumors of MMTV/neu transgenic mice and was used as a self-control baseline. The mice were then treated i.p. for ten days with either PBS or G129R at the following concentrations: 50, 100, 200 or 400 ug daily (2.5 mg/kg/day, 5 mg/kg/day; 10 mg/kg/day; or 20 mg/kg/day of G129R). The tumors were then harvested and processed for western blotting. The western blots were then probed with an antibody that detects phosphorylated HER2/neu protein and an antibody against beta-tubulin as a control for gel loading and western blotting transfer.

[10] = system: phosphorylated HER2/neu protein; assay: Time-dependent response of phosphorylated HER2/neu in tumors in vivo (western blot); set-up: species or system mouse; conditions: 10 mg/kg/day i.p.
Experimental: To determine an optimal length of treatment with G129R, MMTV tumor-bearing mice were treated with 200 ug G129R for either five or ten days. Tumors were removed 24 hours after the last treatment and processed for western blot analysis. […] As also can be seen in FIG. 8, of 10 mice receiving a 10 day treatment of G129R (10 mg/kg/day, i.p.), tumors from 3 mice were highly responsive and virtually no phosphorylated HER2/neu was detected in these tumors, 5 mice were moderately responsive and 2 mice were nonresponsive.

Molecule: CC(=O)O[C@@]12CO[C@@H]1C[C@H](O)[C@@]1(C)C(=O)[C@H](O)C3=C(C)[C@@H](OC(=O)[C@H](O)[C@@H](NC(=O)OC(C)(C)C)c4ccccc4)C[C@@](O)([C@@H](OC(=O)c4ccccc4)[C@H]21)C3(C)C [docetaxel, reference compound]
- number of secondary nodules (metastases) versus control [1]: suppressed the number of secondary nodules
- size (weight) of tumors versus control [1]: suppressed the tumor growth
- number of secondary nodules (metastases) versus control [2]: suppressed the number of secondary nodules
- size (weight) of tumors versus control [2]: suppressed the growth of tumors

B1: G129R: prolactin receptor antagonist: human prolactin in which glycine at position 129 is substituted with arginine (protein)
chain: LPICPGGAARCQVTLRDLFDRAVVLSHYIHNLSSEMFSEFDKRYTHGRGFITKAINSCHTSSLATPEDKEQAQQMNQKDFLSLIVSILRSWNEPLYHLVTEVRGMQEAPEAILSKAVEIEEQTKRLLERMELIVSQVHPETKENEIYPVWSGLPSLQMADEESRLSAYYNLLHCLRRDSHKIDNYLKLLKCRIIHNNNC
- reduction of ALDH1 activity versus control ([3]; 96 hrs): 92.3%
- ALDH1 activity over the time course ([3]; 24, 48, 72, 96 hrs): steady decrease
- ALDH1 activity in triple-negative breast cancer cells [4]: significantly reduced
- ALDH1 activity in cancer cells isolated from treated animals ([5]; 10 mg/kg i.p. for 5 or 10 days, vs PBS): significantly reduced
- ALDH1 activity in cancer cells after ten days of treatment ([5]; 10 mg/kg i.p., ten days): Practically no ALDH1 activity was detected
- number of secondary nodules (metastases) versus control [1]: decreased the number of secondary nodules
- size (weight) of tumors versus control [1]: decreased the size of tumors
- percentage of animals with lung metastases [6]: significantly reduced
- final tumor volume smaller than control (first value of two experiments) [7]: 67.1%
- final tumor volume smaller than control (second value of two experiments) [7]: 71.5%
- final tumor weight reduced versus control (first value of two experiments) [7]: 61.3%
- final tumor weight reduced versus control (second value of two experiments) [7]: 62.5%
- phosphorylated Neu protein in primary tumors [8]: significant decrease
- phosphorylation of neu in secondary tumors ([8]; some phosphorylated neu still detected): decrease
- number of secondary nodules (metastases) versus control [2]: decreased the number of secondary nodules
- size (weight) of tumors versus control [2]: decreased the size of tumors
- lowest dosage with inhibitory effect on phosphorylation of HER+/neu [9]: 5 mg/kg/day
- mice highly responsive (virtually no phosphorylated HER2/neu detected) ([10]; of 10 mice, 10 day treatment): 3 mice
- mice moderately responsive ([10]; of 10 mice, 10 day treatment): 5 mice
- nonresponsive mice ([10]; of 10 mice, 10 day treatment): 2 mice
- mice moderately responsive (noticeable reduction in phosphorylated HER2/neu) ([10]; of 14 mice, 5 day treatment): 4 mice
- mice whose tumors showed drastic reduction in phosphorylated HER2/neu ([10]; of 14 mice, 5 day treatment): 5 mice
- nonresponsive mice ([10]; of 14 mice, 5 day treatment): 5 mice
